Source: patent publication USRE50268

Target: BG505 SOSIP.664 gp140 trimer (HIV-1 isolate BG505)
Test: single-particle negative-stain electron microscopy

B1: PGDM1400 Fab (Fab, V domains shown)
VH: QVHLTQSGPEVRKPGTSVKVSCKAPGNTLKTYDLHWVRSVPGQGLQWMGWISHEGDKKVIVERFKAKVTIDWDRSTNTAYLQLSGLTSGDTAVYYCAKGSKHRLRDYALYDDDGALNWAVDVDYLSNLEFWGQGTAVTVSS
VL: DFVLTQSPHSLSVTPGESASISCKSSHSLIHGDRNNYLAWYVQKPGRSPQLLIYLASSRASGVPDRFSGSGSDKDFTLKISRVETEDVGTYYCMQGRESPWTFGQGTKVDIK
modifications: sulfated tyrosine at position 100F (Tys100F), seen in the electron density map of the Fab crystal structure
stoichiometry (Fab per trimer): 1
